Laboratory results taken from patent publication US20250163183A1 (COAGULANT THERAPEUTICS, published 2025).
One block for each binder: values may come before it.

What was measured:
[1] = molecular target: T1, human activated protein C (APC) (human, UniProt P04070 43-461); test: BLI (Octet): nanobody captured on anti-V5 sensor, dipped in 500 nM APC; buffer sensor reads 0.06
T1 construct: Bought (Haematologic Technologies; plasma-derived from Enzyme Research Laboratories); Two-chain disulfide-linked protease

[2] = molecular target: T2, human protein C (PC) zymogen (human, UniProt P04070 43-197; P04070 200-461); test: ELISA screen, PC-coated wells, OD450, n=2 [Continued]
T2 construct: Bought

[3] = molecular target: T1, human activated protein C (APC); test: cell-based or functional assay
FVIIa = molecular target: T3, FVIIa (UniProt P08709 61-466); test: ELISA, FVIIa coated at 10 µg/mL, HRP-anti-V5, n=3
T3 construct: also called factor VIIa
T3 sequence (looked up): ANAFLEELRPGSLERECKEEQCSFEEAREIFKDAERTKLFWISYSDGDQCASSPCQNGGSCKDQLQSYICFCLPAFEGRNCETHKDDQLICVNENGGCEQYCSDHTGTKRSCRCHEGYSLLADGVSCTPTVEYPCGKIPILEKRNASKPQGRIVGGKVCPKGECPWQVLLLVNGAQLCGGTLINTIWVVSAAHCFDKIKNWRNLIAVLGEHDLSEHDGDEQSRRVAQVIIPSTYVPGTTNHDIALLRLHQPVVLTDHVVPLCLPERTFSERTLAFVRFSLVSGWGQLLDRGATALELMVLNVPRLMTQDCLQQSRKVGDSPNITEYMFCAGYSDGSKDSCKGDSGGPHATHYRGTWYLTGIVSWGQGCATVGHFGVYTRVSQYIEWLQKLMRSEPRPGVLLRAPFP

FXIa = molecular target: T4, FXIa (UniProt P03951 19-625); test: ELISA, FXIa coated at 10 µg/mL, HRP-anti-V5, n=3
T4 construct: also called factor XIa

[4] = molecular target: T1, human activated protein C (APC); test: BLI, VHH captured via anti-V5, APC in solution
[5] = molecular target: T2, human protein C (PC) zymogen; test: ELISA
[6] = molecular target: T1, human activated protein C (APC); test: cell-based or functional assay; remark: listed apart in the source
[7] = molecular target: T2, human protein C (PC) zymogen; test: ELISA screen, PC-coated wells, OD450, n=2
[8] = molecular target: T5, human APC-PPACK (active site-blocked APC) (human, UniProt P04070 43-461, active site bound by the tripeptide inhibitor Phe-Pro-Arg-chloromethylketone (PPACK)); test: ELISA
T5 construct: Bought (Haematologic Technologies)
T5 sequence (P04070 other isoform, or with tags, fused parts or gaps): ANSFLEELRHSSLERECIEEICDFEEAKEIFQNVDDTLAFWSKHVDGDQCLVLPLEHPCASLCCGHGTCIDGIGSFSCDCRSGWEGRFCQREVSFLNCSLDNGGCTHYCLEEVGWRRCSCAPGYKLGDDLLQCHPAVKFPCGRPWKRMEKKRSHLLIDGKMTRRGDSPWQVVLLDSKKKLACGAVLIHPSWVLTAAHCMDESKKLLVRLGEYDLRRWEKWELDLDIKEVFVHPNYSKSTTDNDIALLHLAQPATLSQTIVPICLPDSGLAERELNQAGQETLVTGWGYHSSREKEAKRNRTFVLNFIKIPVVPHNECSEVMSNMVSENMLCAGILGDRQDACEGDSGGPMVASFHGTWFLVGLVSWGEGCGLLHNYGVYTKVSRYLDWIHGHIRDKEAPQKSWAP

T2 sequence (P04070 43-197, chain 1 of 2): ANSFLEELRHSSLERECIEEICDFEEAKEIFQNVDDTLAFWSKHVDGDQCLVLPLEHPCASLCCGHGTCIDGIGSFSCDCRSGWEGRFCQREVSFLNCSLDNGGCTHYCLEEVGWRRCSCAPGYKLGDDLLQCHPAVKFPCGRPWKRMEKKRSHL
T2 sequence (P04070 200-461, chain 2 of 2): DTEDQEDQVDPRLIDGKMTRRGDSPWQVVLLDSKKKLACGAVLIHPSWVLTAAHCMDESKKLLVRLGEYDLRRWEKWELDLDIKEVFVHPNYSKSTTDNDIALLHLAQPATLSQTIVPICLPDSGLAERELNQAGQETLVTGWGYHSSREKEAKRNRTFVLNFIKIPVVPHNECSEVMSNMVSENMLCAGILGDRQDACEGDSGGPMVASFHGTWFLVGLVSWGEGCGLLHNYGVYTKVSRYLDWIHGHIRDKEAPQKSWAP
T4 sequence (P03951 19-625 limits assumed): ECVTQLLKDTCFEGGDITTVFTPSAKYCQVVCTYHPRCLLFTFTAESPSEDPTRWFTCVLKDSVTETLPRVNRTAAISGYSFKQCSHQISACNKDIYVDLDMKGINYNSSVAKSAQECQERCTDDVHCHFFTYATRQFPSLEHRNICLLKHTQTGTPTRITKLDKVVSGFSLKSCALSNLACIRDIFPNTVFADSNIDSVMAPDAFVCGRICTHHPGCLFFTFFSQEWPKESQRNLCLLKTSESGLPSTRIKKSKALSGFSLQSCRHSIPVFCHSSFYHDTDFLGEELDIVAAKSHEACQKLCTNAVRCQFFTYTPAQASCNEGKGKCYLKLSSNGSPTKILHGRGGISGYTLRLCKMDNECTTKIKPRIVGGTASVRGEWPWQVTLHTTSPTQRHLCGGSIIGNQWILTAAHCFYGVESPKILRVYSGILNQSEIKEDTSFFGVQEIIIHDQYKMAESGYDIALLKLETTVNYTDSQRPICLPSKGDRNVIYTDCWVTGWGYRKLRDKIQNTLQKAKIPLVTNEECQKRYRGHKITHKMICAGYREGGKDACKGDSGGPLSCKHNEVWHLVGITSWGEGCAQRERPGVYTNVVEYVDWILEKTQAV
T1 sequence (P04070 other isoform, or with tags, fused parts or gaps): as the sequence (P04070 other isoform, or with tags, fused parts or gaps) above

binding result (FVIIa): no binding (tested: 2 µg/mL)
binding result (FXIa): no binding (tested: 2 µg/mL)
B12: LP21 (SR16983-R4-P1-D01) (VHH, not shown: small tags and cut ends)
VHH: QLQLVESGGGLVQAGESLRLSCVLSGSTFGRNVITWYRQPPGKQREFIAMITTSGSTRYADSVKGRFTMSRDTAKNTAFLQMSNLKLEDTAVYYCWTAIAGQGEYWGQGTQVTVSS
notes: Llama VHH purified from E. coli periplasm

binding result (FVIIa): no binding (tested: 2 µg/mL)
binding result (FXIa): no binding (tested: 2 µg/mL)
B13: LP17 (SR16983-R4-P1-A09) (VHH, not shown: small tags and cut ends)
VHH: QLQLVESGGGLVQPGGSLRLSCAASGTTSSLNLMGWYRQAPGKKRESVAHMTSDGRTDYVDSVKGRFTISRDNSKNTVYLQMNNLKPEDTAVYICYANPFLGSWSNYWGQGTQVTVSS
notes: as for B12

binding result (FVIIa): no binding (tested: 2 µg/mL)
binding result (FXIa): no binding (tested: 2 µg/mL)
B15: LP14 (SR16983-R3-P4-A06) (VHH, not shown: small tags and cut ends)
VHH: QLQLVESGGGLVQAGGSLRLSCTASGSTSSIVIISWYRQAPGEQRDLVATINNGGDVDVADFVKGRFTISRDNAKNAVYLQMNNLKPEDTAVYYCSARTPSLRVTWFWGQGTQVTVSS
notes: as for B12

binding result (FVIIa): no binding (tested: 2 µg/mL)
binding result (FXIa): no binding (tested: 2 µg/mL)
B16: LP6 (SR16983-R3-P2-F11) (VHH, not shown: small tags and cut ends)
VHH: QLQLVESGGGLVQPGGSLRLSCAASGSIGRLNVMGWFRQAPGKQRELVAVISSDNKKDYADSVQGRFTISRDNSKNTVYLQMNSLKPEDTAVYYCNVRWTMGGNYWGQGTQVTVSS
notes: as for B12

binding result (FVIIa): no binding (tested: 2 µg/mL)
binding result (FXIa): no binding (tested: 2 µg/mL)
B17: LP16 (SR16983-R4-P1-A04) (VHH, not shown: small tags and cut ends)
VHH: QLQLVESGGGLVEAGGSLRLSCAVSGTTFSANTMVWHRQAPGKQREWVARISSSGTTNYADSVRGRFSLSRGNAKNTVYLQMNSLKPDDTAVYYCNAILPSRSIWGRGTQVTVSS
notes: as for B12

binding result (FVIIa): no binding (tested: 2 µg/mL)
binding result (FXIa): no binding (tested: 2 µg/mL)
B18: LP5 (SR16983-R3-P2-F04) (VHH, not shown: small tags and cut ends)
VHH: QVQLVESGGGLVQHGGSLRLSCAVSGSIFTTATMAWYRQAPGKQRDWVAVITTGGSTRYADDVKGRFAISRDNAKNTVYLQMNNLKPEDTAVYYCNAATRLSSTNYWGQGTQVSVSS
notes: as for B12

binding result [5]: no binding
binding result [8]: binds
B19: SR16983-R2-P2-G09 (VHH)
VHH: QLQLVESGGGLVQAGGSLRLSCVASGTTFSIEETYWYRLAPGKQRELVAVISGGGNTNYADSVKGRFTISRDNAKNTVYLQMNSLKPEDTAVYYCSARTIATVKWGQGIQVTVSS

binding result [5]: no binding
binding result [8]: binds
B20: SR16983-R3-P2-A08 (VHH)
VHH: QVQLVESGGGLVQAGGSLRLSCAASGRTSSNYNMGWFRQAPGKEREFVAAIPWTGSTTYYADPVKGRFTISRDSTKNTGDLQMNSLKPEDTAVYYCALGRRENYYALLQQRGYDYWGQGTQVTVSS

Further lines, the binder ahead of its results:

B1: LP3 (SR16983-R2-P4-E09) (VHH, not shown: small tags and cut ends)
VHH: QVQLVESGGGLVQPGGSLTLSCAASGTIESINDMGWYRQAPGKQRELVAAITSGGSTNYADSVKGRFTISRDNAKNTVYLQMNSLKPEDTAVYYCNAEVKRHYYYDSAGYRYWGQGTQVTVSS
notes: as for B12
APC binding (nm) [1]: 0.29 nm
binding result [2]: no binding
APC plasma T1/2 (min; mean) [3]: 28.8 min
binding result (FVIIa): no binding (tested: 2 µg/mL)
binding result (FXIa): no binding (tested: 2 µg/mL)
Kd [4]: 8.8 nM
koff [4]: 0.0016 s⁻¹
kon [4]: 180000 M⁻¹ s⁻¹

B2: LP4 (SR16983-R3-P2-A06) (VHH, not shown: small tags and cut ends)
VHH: QLQLVESGGGLVQAGGSLRLSCAASGSTFNFRIMGWYRQVPGKQRELVAVINSGGSADYTEDVKGRFTISRDDAKSTMYLQMNSLKPEDTAVYYCHAKKVEPTLFTTTYWGQGTQVTVSS
notes: as for B12
APC binding (nm) [1]: 0.33 nm
binding result [2]: no binding
APC plasma T1/2 (min; mean) [3]: 33 min
binding result (FVIIa): no binding (tested: 2 µg/mL)
binding result (FXIa): no binding (tested: 2 µg/mL)
Kd [4]: 4.4 nM
koff [4]: 0.0027 s⁻¹
kon [4]: 550000 M⁻¹ s⁻¹

B3: LP15 (SR16983-R3-P5-H05) (VHH, not shown: small tags and cut ends)
VHH: QLQLVESGGGLVQAGGSLRLSCAASGTTFSFVYMGWYRQAPGNQRDLVARISSDGSTNYADSVKGRFTISGDNAKNTVYLQMNSLKPEDTARYYCFWNGHTNKWGQGTQVTVSS
notes: as for B12
APC binding (nm) [1]: 0.31 nm
binding result [5]: no binding
APC plasma T1/2 (min; mean) [3]: 36.4 min
binding result (FVIIa): no binding (tested: 2 µg/mL)
binding result (FXIa): no binding (tested: 2 µg/mL)
Kd [4]: 16 nM
koff [4]: 0.0066 s⁻¹
kon [4]: 400000 M⁻¹ s⁻¹

B4: LP1 (SR16983-R2-P3-D06) (VHH, not shown: small tags and cut ends)
VHH: QLQLVESGGGLVQAGGSLRLSCAASGSTFPINVFAWYRQAPGEQRELGELVAFIGRSGTTNYGDSVKGRFTISRDNAKNTVYLQMDSLRPEDTAVYYCNLGDYWGQGTQVTVSS
notes: as for B12
APC binding (nm) [1]: 0.32 nm
APC-mediated histone H3 cleavage, 500 nM nanobody [6]: < 75 % residual activity
Kd [4]: 15 nM
koff [4]: 0.009 s⁻¹
kon [4]: 590000 M⁻¹ s⁻¹

B5: LP19 (SR16983-R4-P1-B06) (VHH, not shown: small tags and cut ends)
VHH: QLQLVESGGGEVQAGESLRLSCAASGSTFSINVFAWYRDYPGKQRELVAVIGRSGTPRYADSVKGRFTISRDNAKNTVYLQMNSLEPEDTAVYYCHLGDTWGQGTQVTVSS
notes: as for B12
APC binding (nm) [1]: 0.31 nm
APC-mediated histone H3 cleavage, 500 nM nanobody [6]: < 75 % residual activity
binding result (FVIIa): no binding (tested: 2 µg/mL)
binding result [7]: no binding
binding result (FXIa): no binding (tested: 2 µg/mL)
Kd [4]: 6.1 nM
koff [4]: 0.0025 s⁻¹
kon [4]: 410000 M⁻¹ s⁻¹

B6: SR16983-R2-P4-B05 (VHH)
VHH: QVQLVESGGGLVQAGGSLRLSCAASGRVFGTYVMGWFRQAPGKEREFVAAFSRSTGHITYADSVKGRFTISRDDAKNTLYLQMNSLKPEDTAVYYCATRASINYNYANWPYWGQGTQVTVSS
binding result [5]: no binding
binding result [8]: binds

B7: SR16983-R2-P4-G01 (VHH)
VHH: QLQLVESGGGLVQAGGSLRLSCAASGRTVGSYVMGWFRQAPGKEREFLAANSRSTGNTVYADSVKGRFTISRDDAKNTLYLQMNSLKPEDTAVYYCATRASINYNYANWPYWGQGTQVNVSS
binding result [5]: no binding
binding result [8]: binds

B8: SR16983-R2P1C10 (VHH)
VHH: QLQLVESGGGLVQPGGSLRLSCAASGRIFGSYVMGWFRQAPGKEHEFVAASSRSTGNTVYLDSVKGRFTISRDDAKNTLYLQMNSLKPEDTAVYYCATRASINYNYANWPYRGQGTQVTVSS
binding result [5]: no binding
binding result [8]: binds

B9: SR16983-R3-P4-E04 (VHH)
VHH: QVQLVESGGGLVQAGGSLRLSCAASGRTVGSYAVGWFRQAPGKEREFLAASSRSTGNTVYADSVKGRFTISRDDAKNTLYLQMNSLKPEDTAVYYCATRASINYNYANWPYWGQGTQVTVSS
binding result [5]: no binding
binding result [8]: binds

B10: SR16983-R3P2A9 (VHH)
VHH: QVQLVESGGGLVQAGGSLRLSCAASGRTVGSYVMGWFRQAPGKERELLAASSRSTGNTVYADSVKGRFTISRDDAKNTVFLQMNSLKPEDTAVYYCAARASINYNYANWPYWGQGTQVTVSP
binding result [5]: no binding
binding result [8]: binds

B11: SR16983-R3P2G9 (VHH)
VHH: QVQLVESGGGLVQPGGSLRLSCAASGRTFGSYVMGWFRQAPGKEREFVAAASRSTGNTVYPDSVKGRFTISRDDAKNTLYLQMNSLKPEDTAVYYCAARASINYNYANWPYWGQGTQVTVSS
binding result [5]: no binding
binding result [8]: binds

B14: SR16983-R3P2E7 (VHH)
VHH: QLQLVESGGGLVQAGGSLRLSCVASGTTFTIEDIGWYRLAPGKQRELVAIISGGNTNYADSVKGRFTISRDNAKNTVFLQMNSLKPEDTAVYYCNARTKATAKWGRGIQVTVSS
binding result [5]: no binding
binding result [8]: binds
